Data published in publication PMC4471680.

Target: myeloperoxidase (human (endogenous in neutrophils))
Assay: SEC; unactivated azurophilic granules permeabilized with 0.1% NP-40, Superdex 200 GL, 20 mM HEPES pH 7.4, 100 mM NaCl, 0.5 U/ml heparin; fractions probed for NE and MPO; proteins of the complex detected by mass spectrometry

Sequence of myeloperoxidase (human (endogenous in neutrophils)) (P05164 165-745): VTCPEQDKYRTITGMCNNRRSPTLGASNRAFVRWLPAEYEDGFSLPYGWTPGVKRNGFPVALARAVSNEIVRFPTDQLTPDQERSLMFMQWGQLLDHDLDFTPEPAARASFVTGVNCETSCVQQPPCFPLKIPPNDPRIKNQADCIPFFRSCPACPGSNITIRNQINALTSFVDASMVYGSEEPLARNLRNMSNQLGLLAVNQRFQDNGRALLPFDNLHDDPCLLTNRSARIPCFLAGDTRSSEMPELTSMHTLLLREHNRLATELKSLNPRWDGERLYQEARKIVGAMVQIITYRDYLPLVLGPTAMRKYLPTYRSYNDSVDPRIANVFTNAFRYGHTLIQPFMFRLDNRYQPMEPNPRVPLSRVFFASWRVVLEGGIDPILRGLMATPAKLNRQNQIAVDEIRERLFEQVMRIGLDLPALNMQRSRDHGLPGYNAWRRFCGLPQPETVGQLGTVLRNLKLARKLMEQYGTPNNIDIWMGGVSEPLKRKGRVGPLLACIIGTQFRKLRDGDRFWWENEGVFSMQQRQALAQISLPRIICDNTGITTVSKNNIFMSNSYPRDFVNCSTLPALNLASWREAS

stoichiometry N: 2 NE per MPO
Substance: neutrophil elastase (from UniProt P08246 30-267) (enzyme)
